B1: M155A: mutated TriA variant of SEQ ID NO: 2 (protein)
chain: MQTLSIQHGTLVTMDQYRRVLGDSWVHVQDGRIVALGVHAESVPPPADRVIDARGKVVLPGFINAHTHVNQILLRGGPSHGRQLYDWLFNVLYPGQKAMRPEDVAVAVRLYCAEAVRSGITTINDNADSAIYPGNIEAAMAVYGEVGVRVVYARAFFDRMDGRIQGYVDALKARSPQVELCSIMEETAVAKDRITALSDQYHGTAGGRISVWPAPAITPAVTVEGMRWAQAFARDRAVMWTLHMAESDHDERLHWMSPAEYMECYGLLDERLQVAHCVYFDRKDVRLLHRHNVKVASQVVSNAYLGSGVAPVPEMVERGMAVGIGTDDGNCNDSVNMIGDMKFMAHIHRAVHRDADVLTPEKILEMATIDGARSLGMDHEIGSIETGKRADLILLDLRHPQTTPHHHLAATIVFQAYGNEVDTVLIDGNVVMENRRLSFLPPERELAFLEEAQSRATAILQRANMVANPAWRSL
modifications: Pseudomonas
B2: F157A: mutated TriA variant of SEQ ID NO: 2 (protein)
chain: MQTLSIQHGTLVTMDQYRRVLGDSWVHVQDGRIVALGVHAESVPPPADRVIDARGKVVLPGFINAHTHVNQILLRGGPSHGRQLYDWLFNVLYPGQKAMRPEDVAVAVRLYCAEAVRSGITTINDNADSAIYPGNIEAAMAVYGEVGVRVVYARMFADRMDGRIQGYVDALKARSPQVELCSIMEETAVAKDRITALSDQYHGTAGGRISVWPAPAITPAVTVEGMRWAQAFARDRAVMWTLHMAESDHDERLHWMSPAEYMECYGLLDERLQVAHCVYFDRKDVRLLHRHNVKVASQVVSNAYLGSGVAPVPEMVERGMAVGIGTDDGNCNDSVNMIGDMKFMAHIHRAVHRDADVLTPEKILEMATIDGARSLGMDHEIGSIETGKRADLILLDLRHPQTTPHHHLAATIVFQAYGNEVDTVLIDGNVVMENRRLSFLPPERELAFLEEAQSRATAILQRANMVANPAWRSL
modifications: Pseudomonas
B3: A216S: mutated TriA variant of SEQ ID NO: 2 (protein)
chain: MQTLSIQHGTLVTMDQYRRVLGDSWVHVQDGRIVALGVHAESVPPPADRVIDARGKVVLPGFINAHTHVNQILLRGGPSHGRQLYDWLFNVLYPGQKAMRPEDVAVAVRLYCAEAVRSGITTINDNADSAIYPGNIEAAMAVYGEVGVRVVYARMFFDRMDGRIQGYVDALKARSPQVELCSIMEETAVAKDRITALSDQYHGTAGGRISVWPAPSITPAVTVEGMRWAQAFARDRAVMWTLHMAESDHDERLHWMSPAEYMECYGLLDERLQVAHCVYFDRKDVRLLHRHNVKVASQVVSNAYLGSGVAPVPEMVERGMAVGIGTDDGNCNDSVNMIGDMKFMAHIHRAVHRDADVLTPEKILEMATIDGARSLGMDHEIGSIETGKRADLILLDLRHPQTTPHHHLAATIVFQAYGNEVDTVLIDGNVVMENRRLSFLPPERELAFLEEAQSRATAILQRANMVANPAWRSL
modifications: Pseudomonas
B4: L88AY167I: mutated TriA variant of SEQ ID NO: 2 (protein)
chain: MQTLSIQHGTLVTMDQYRRVLGDSWVHVQDGRIVALGVHAESVPPPADRVIDARGKVVLPGFINAHTHVNQILLRGGPSHGRQLYDWAFNVLYPGQKAMRPEDVAVAVRLYCAEAVRSGITTINDNADSAIYPGNIEAAMAVYGEVGVRVVYARMFFDRMDGRIQGIVDALKARSPQVELCSIMEETAVAKDRITALSDQYHGTAGGRISVWPAPAITPAVTVEGMRWAQAFARDRAVMWTLHMAESDHDERLHWMSPAEYMECYGLLDERLQVAHCVYFDRKDVRLLHRHNVKVASQVVSNAYLGSGVAPVPEMVERGMAVGIGTDDGNCNDSVNMIGDMKFMAHIHRAVHRDADVLTPEKILEMATIDGARSLGMDHEIGSIETGKRADLILLDLRHPQTTPHHHLAATIVFQAYGNEVDTVLIDGNVVMENRRLSFLPPERELAFLEEAQSRATAILQRANMVANPAWRSL
modifications: Pseudomonas
B5: M155E: mutated TriA variant of SEQ ID NO: 2 (protein)
chain: MQTLSIQHGTLVTMDQYRRVLGDSWVHVQDGRIVALGVHAESVPPPADRVIDARGKVVLPGFINAHTHVNQILLRGGPSHGRQLYDWLFNVLYPGQKAMRPEDVAVAVRLYCAEAVRSGITTINDNADSAIYPGNIEAAMAVYGEVGVRVVYAREFFDRMDGRIQGYVDALKARSPQVELCSIMEETAVAKDRITALSDQYHGTAGGRISVWPAPAITPAVTVEGMRWAQAFARDRAVMWTLHMAESDHDERLHWMSPAEYMECYGLLDERLQVAHCVYFDRKDVRLLHRHNVKVASQVVSNAYLGSGVAPVPEMVERGMAVGIGTDDGNCNDSVNMIGDMKFMAHIHRAVHRDADVLTPEKILEMATIDGARSLGMDHEIGSIETGKRADLILLDLRHPQTTPHHHLAATIVFQAYGNEVDTVLIDGNVVMENRRLSFLPPERELAFLEEAQSRATAILQRANMVANPAWRSL
modifications: Pseudomonas
B6: L84VL88AY167I: mutated TriA variant of SEQ ID NO: 2 (protein)
chain: MQTLSIQHGTLVTMDQYRRVLGDSWVHVQDGRIVALGVHAESVPPPADRVIDARGKVVLPGFINAHTHVNQILLRGGPSHGRQVYDWAFNVLYPGQKAMRPEDVAVAVRLYCAEAVRSGITTINDNADSAIYPGNIEAAMAVYGEVGVRVVYARMFFDRMDGRIQGIVDALKARSPQVELCSIMEETAVAKDRITALSDQYHGTAGGRISVWPAPAITPAVTVEGMRWAQAFARDRAVMWTLHMAESDHDERLHWMSPAEYMECYGLLDERLQVAHCVYFDRKDVRLLHRHNVKVASQVVSNAYLGSGVAPVPEMVERGMAVGIGTDDGNCNDSVNMIGDMKFMAHIHRAVHRDADVLTPEKILEMATIDGARSLGMDHEIGSIETGKRADLILLDLRHPQTTPHHHLAATIVFQAYGNEVDTVLIDGNVVMENRRLSFLPPERELAFLEEAQSRATAILQRANMVANPAWRSL
modifications: Pseudomonas
B7: F157M: mutated TriA variant of SEQ ID NO: 2 (protein)
chain: MQTLSIQHGTLVTMDQYRRVLGDSWVHVQDGRIVALGVHAESVPPPADRVIDARGKVVLPGFINAHTHVNQILLRGGPSHGRQLYDWLFNVLYPGQKAMRPEDVAVAVRLYCAEAVRSGITTINDNADSAIYPGNIEAAMAVYGEVGVRVVYARMFMDRMDGRIQGYVDALKARSPQVELCSIMEETAVAKDRITALSDQYHGTAGGRISVWPAPAITPAVTVEGMRWAQAFARDRAVMWTLHMAESDHDERLHWMSPAEYMECYGLLDERLQVAHCVYFDRKDVRLLHRHNVKVASQVVSNAYLGSGVAPVPEMVERGMAVGIGTDDGNCNDSVNMIGDMKFMAHIHRAVHRDADVLTPEKILEMATIDGARSLGMDHEIGSIETGKRADLILLDLRHPQTTPHHHLAATIVFQAYGNEVDTVLIDGNVVMENRRLSFLPPERELAFLEEAQSRATAILQRANMVANPAWRSL
modifications: Pseudomonas
B8: L841L88AY167I: mutated TriA variant of SEQ ID NO: 2 (protein)
chain: MQTLSIQHGTLVTMDQYRRVLGDSWVHVQDGRIVALGVHAESVPPPADRVIDARGKVVLPGFINAHTHVNQILLRGGPSHGRQIYDWAFNVLYPGQKAMRPEDVAVAVRLYCAEAVRSGITTINDNADSAIYPGNIEAAMAVYGEVGVRVVYARMFFDRMDGRIQGIVDALKARSPQVELCSIMEETAVAKDRITALSDQYHGTAGGRISVWPAPAITPAVTVEGMRWAQAFARDRAVMWTLHMAESDHDERLHWMSPAEYMECYGLLDERLQVAHCVYFDRKDVRLLHRHNVKVASQVVSNAYLGSGVAPVPEMVERGMAVGIGTDDGNCNDSVNMIGDMKFMAHIHRAVHRDADVLTPEKILEMATIDGARSLGMDHEIGSIETGKRADLILLDLRHPQTTPHHHLAATIVFQAYGNEVDTVLIDGNVVMENRRLSFLPPERELAFLEEAQSRATAILQRANMVANPAWRSL
modifications: Pseudomonas
B9: N70T: mutated TriA variant of SEQ ID NO: 2 (protein)
chain: MQTLSIQHGTLVTMDQYRRVLGDSWVHVQDGRIVALGVHAESVPPPADRVIDARGKVVLPGFINAHTHVTQILLRGGPSHGRQLYDWLFNVLYPGQKAMRPEDVAVAVRLYCAEAVRSGITTINDNADSAIYPGNIEAAMAVYGEVGVRVVYARMFFDRMDGRIQGYVDALKARSPQVELCSIMEETAVAKDRITALSDQYHGTAGGRISVWPAPAITPAVTVEGMRWAQAFARDRAVMWTLHMAESDHDERLHWMSPAEYMECYGLLDERLQVAHCVYFDRKDVRLLHRHNVKVASQVVSNAYLGSGVAPVPEMVERGMAVGIGTDDGNCNDSVNMIGDMKFMAHIHRAVHRDADVLTPEKILEMATIDGARSLGMDHEIGSIETGKRADLILLDLRHPQTTPHHHLAATIVFQAYGNEVDTVLIDGNVVMENRRLSFLPPERELAFLEEAQSRATAILQRANMVANPAWRSL
modifications: Pseudomonas
B10: A216G: mutated TriA variant of SEQ ID NO: 2 (protein)
chain: MQTLSIQHGTLVTMDQYRRVLGDSWVHVQDGRIVALGVHAESVPPPADRVIDARGKVVLPGFINAHTHVNQILLRGGPSHGRQLYDWLFNVLYPGQKAMRPEDVAVAVRLYCAEAVRSGITTINDNADSAIYPGNIEAAMAVYGEVGVRVVYARMFFDRMDGRIQGYVDALKARSPQVELCSIMEETAVAKDRITALSDQYHGTAGGRISVWPAPGITPAVTVEGMRWAQAFARDRAVMWTLHMAESDHDERLHWMSPAEYMECYGLLDERLQVAHCVYFDRKDVRLLHRHNVKVASQVVSNAYLGSGVAPVPEMVERGMAVGIGTDDGNCNDSVNMIGDMKFMAHIHRAVHRDADVLTPEKILEMATIDGARSLGMDHEIGSIETGKRADLILLDLRHPQTTPHHHLAATIVFQAYGNEVDTVLIDGNVVMENRRLSFLPPERELAFLEEAQSRATAILQRANMVANPAWRSL
modifications: Pseudomonas

Assay type: biochemical
Details: pH 7.2
Procedure, shortened: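 E. coli resting cells expressing His-tagged TriA incubated with azines, melamine or atrazine. Enzyme in 25 mM sodium phosphate pH 7.2 at 30 °C, substrate 1–10 nM. Loss of parent and formation of OH-metabolite followed by UPLC-HR-MS; % degradation relative to empty-vector cells.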
For B1, the “Degradation in % of 6-cyclopentyl-N4-(2,3,4,5,6-pentafluorophenyl)-1,3,5-triazine-2,4-diamine” value was 4% and the “Degradation in % of Melamine” value was 0%. In the case of B2, the “Degradation in % of 6-cyclopentyl-N4-(2,3,4,5,6-pentafluorophenyl)-1,3,5-triazine-2,4-diamine” value is reported as 0% and the “Degradation in % of Melamine” value is reported as 19%. With B3 the “Degradation in % of 6-cyclopentyl-N4-(2,3,4,5,6-pentafluorophenyl)-1,3,5-triazine-2,4-diamine” value was 1% and the “Degradation in % of Melamine” value was 45%. For B4, the “Degradation in % of 6-cyclopentyl-N4-(2,3,4,5,6-pentafluorophenyl)-1,3,5-triazine-2,4-diamine” value was 0% and the “Degradation in % of Melamine” value was 2%. For B5, the “Degradation in % of 6-cyclopentyl-N4-(2,3,4,5,6-pentafluorophenyl)-1,3,5-triazine-2,4-diamine” value was 0% and the “Degradation in % of Melamine” value was 0%. In the case of B6, the “Degradation in % of 6-cyclopentyl-N4-(2,3,4,5,6-pentafluorophenyl)-1,3,5-triazine-2,4-diamine” value is reported as 3% and the “Degradation in % of Melamine” value is reported as 7%. For B7, the “Degradation in % of 6-cyclopentyl-N4-(2,3,4,5,6-pentafluorophenyl)-1,3,5-triazine-2,4-diamine” value was 0% and the “Degradation in % of Melamine” value was 17%. For B8, the “Degradation in % of 6-cyclopentyl-N4-(2,3,4,5,6-pentafluorophenyl)-1,3,5-triazine-2,4-diamine” value was 4% and the “Degradation in % of Melamine” value was 9%. With B9 the “Degradation in % of 6-cyclopentyl-N4-(2,3,4,5,6-pentafluorophenyl)-1,3,5-triazine-2,4-diamine” value was 0% and the “Degradation in % of Melamine” value was 0%. With B10 the “Degradation in % of 6-cyclopentyl-N4-(2,3,4,5,6-pentafluorophenyl)-1,3,5-triazine-2,4-diamine” value was 0% and the “Degradation in % of Melamine” value was 64%.

Reference: patent US11499162B2, “Plants having increased tolerance to herbicides” (BASF SE, priority 2016, dated 2022)
